A short description of data set [1]: folding stability dG unfold from trypsin proteolysis; higher = more stable. In outline: (§1)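 Mini-proteins designed to be under 80 residues and free of cysteine were carried in a PA-tagged cDNA display construct and digested with trypsin and with chymotrypsin. Each protease was applied at 11 threefold-diluted concentrations, alongside a no-protease condition, before sequencing. K50 came from Bayesian fitting of the sequencing counts, and unfolding free energy was obtained by comparing it with a sequence-predicted unfolded-state K50 and a shared folded-state K50, for each protease separately or for both together. Designs were retained only if their AlphaFold2 dimer inter-PAE exceeded 15.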

A short description of data set [2]: folding stability dG unfold from chymotrypsin proteolysis; higher = more stable. Put shortly:
as §1

Data set [3] in a line: folding stability dG unfold (combined trypsin and chymotrypsin); higher = more stable. Put shortly: as §1

± gives the half width of the 95% confidence interval.

Turning to “SKKYFLKIEIEIEVELRPLPDEPGYVVLRARIKIKITLVKVDPETGEIVEEKEFEIEIEIELVFPPGVKPSA [r9_1234_TrROS_Hall]”, the “folding stability dG unfold” value is 4.35 ± 0.58 kcal/mol in data set [1], 6.38 ± 0.71 kcal/mol in data set [2] and over 6 kcal/mol in data set [3].
As to “SKLKIEDIKWNPNYPGMYEFKIKLPDKPATIQIPHDPNNGRFMMEIWYPDKPVTVQFDSWDDALAFIKELSA [r9_366_TrROS]”, the figures for the “folding stability dG unfold” value in data set [1], in data set [2] and in data set [3] were 1.6 ± 0.046 kcal/mol, 1.35 ± 0.16 kcal/mol and 1.52 ± 0.11 kcal/mol, respectively.
For “SKMKVIKTFENKETGEKIVIVKDEKTKKYYIFIYNKDGELVEKIEVEPGETITLPNGKTITIKEGDVIEFSA [r9_340_TrROS_Hall]” the same measures were 4.24 ± 0.13 kcal/mol, 4.24 ± 0.071 kcal/mol and 4.35 ± 0.087 kcal/mol.
For “SKNKVEITIPMPYSQAREIARQLGLPPEKFKDPKDLVDWLKDLFPKDVKIRIQPMKPVTEEERRARQNGKSA [r9_74_TrROS]”, the “folding stability dG unfold” value in data set [1] stood at 0.817 ± 0.12 kcal/mol; in data set [2], 1.34 ± 0.076 kcal/mol; in data set [3] it was 1.12 ± 0.085 kcal/mol.
For “SKNYPIRISIFQRNPNGNPQTVTYPIPVDAAKELKDAGFEVKDVDPDSGMIMVKFPMPNYPVYIMISIEDSA [r9_5_TrROS]” the same measures were 2.75 ± 0.093 kcal/mol, 3.12 ± 0.056 kcal/mol and 2.98 ± 0.13 kcal/mol.
For “SKPDPVKIEIEQERNPNGQPQHTIKIQDKGKDRKFPIHNMSIDEFDPDDPYIKIRSPGNGQSHTIPPDDLSA [r9_1186_TrROS]”, in that order: -0.0606 ± 0.073 kcal/mol, 1.22 ± 0.022 kcal/mol and 0.832 ± 0.098 kcal/mol.
For “SKPILKIKINIPVLKDKNGKEIIPSPNDVLAALEKLGIPVDKAEITKIGKNTIPILILVDLVDGKAYVKDSA [r9_225_TrMRF]” the same measures were 1.51 ± 0.059 kcal/mol, 0.539 ± 0.054 kcal/mol and 1.13 ± 0.1 kcal/mol.
As to “SKPPSDPGSIEFSFPDSSNVTVTIPVPLPPNTTVSISLSDGKSYTVPGGTTFTFTLPPGKPFTVTVNIRSSA [r9_79_JUSTAS]”, the “folding stability dG unfold” value in data set [1] was determined as 3.75 ± 0.2 kcal/mol; in data set [2] it was 4.47 ± 0.061 kcal/mol; in data set [3], 4.23 ± 0.2 kcal/mol.
Regarding “SKPTLTLKLTVVVKDENGEKKTVTLTIPVSEEELEKLLKEIAKELGLKDVKVVKIEKNKNGFIKITVEVKSA [r9_1101_TrROS_Hall]”, the “folding stability dG unfold” value in data set [1] was determined as 2.16 ± 0.12 kcal/mol; in data set [2], 2.36 ± 0.033 kcal/mol; in data set [3], 2.36 ± 0.21 kcal/mol.
For “SKTFYAGLDVYFDPDSDELTALVGVRSEDGSYEPSLEEVAREVAAKLRELGYEVEVEPLPGYARIRVKPPSA [r9_510_TrMRF]” the same measures were 1.67 ± 0.039 kcal/mol, 1.72 ± 0.069 kcal/mol and 1.71 ± 0.057 kcal/mol.
For the sequence “SKTIIIEVKEEKLEEIAEELAKKLEEETGYKIKKVEIILPDGTVVRIEVDAKTKKIKIEVYKLDKNGKLLSA [r9_173_TrROS_Hall]”, the “folding stability dG unfold” value amounted to 1.15 ± 0.037 kcal/mol in data set [1], 2.24 ± 0.096 kcal/mol in data set [2] and 1.97 ± 0.1 kcal/mol in data set [3].
As to “SKTIMFQFDSIEEIKDFIKEAIDDGDPDQKIRIEWYPPGGRRQEHEIESPEDIIDFLENGPYWIRVEIEPSA [r9_589_TrROS]”, the results for the “folding stability dG unfold” value in data set [1], in data set [2] and in data set [3] were 1.68 ± 0.052 kcal/mol, 2.16 ± 0.047 kcal/mol and 2.05 ± 0.12 kcal/mol, respectively.
On to “SKVIYVPPGATVEEILAAIKANKGKTVTIVMSREELERLKKALEEAGYEVEEVKVFEEEPYVVVKIKVKPSA [r9_1138_TrROS_Hall]”, for which the “folding stability dG unfold” value in data set [1] was determined as 4 ± 0.17 kcal/mol; in data set [2], 3.72 ± 0.12 kcal/mol; in data set [3] it was 3.84 ± 0.18 kcal/mol.
For “SLGPLVELAELFPDFEPLGVEEEPLEDGGRLLRVIGRIPEIGAYLLIEVRLPPGGGIESIRAEWVPEDELSA [r9_274_TrMRF]” the same measures were 3.4 ± 0.12 kcal/mol, 4.28 ± 0.071 kcal/mol and 3.95 ± 0.11 kcal/mol.
For “SLIEALRAALEAGADEVTLRIVMPEEEAEELEKALEDLGFEIVSRERVEVDGRRYLVMEIRLRAPPPEEPSA [r9_498_TrROS_Hall]”, in that order: 3.92 ± 0.095 kcal/mol, 4.93 ± 0.084 kcal/mol and 4.59 ± 0.1 kcal/mol.
For “SLKPGEWVMFMFTIPITIRITKDDLPPGWKIKEVTIRIYVMFLFRVDPDGNFKILSFNIMIEIEVKYEPDSA [r9_747_TrROS]” the same measures were 4.52 ± 0.13 kcal/mol, 5.1 ± 0.081 kcal/mol and 4.98 ± 0.11 kcal/mol.
As to “SLRDIAKEIAEKAGMDPEDVEINVETEPDPKNGKPRLRITVSIEHPNRKYMIKIDFQDGEIEEIMPLEDISA [r9_1219_TrROS]”, the “folding stability dG unfold” value in data set [1] came to 1.66 ± 0.099 kcal/mol; in data set [2], 1.97 ± 0.089 kcal/mol; in data set [3], 1.74 ± 0.3 kcal/mol.
For “SLSPALEGPEALAALAAADPVPPLPVLTVKNSTGDPEKALEEVLKEHPELKPELIVEVEVGEGTLTITVLSA [r9_723_JUSTAS]”, in that order: 0.442 ± 0.13 kcal/mol, 0.573 ± 0.095 kcal/mol and 0.48 ± 0.19 kcal/mol.
For the sequence “SLTAEEAAANPELAARLLALPPVPPFPVELLFVNPETRAVLPAKATVYQFPNTWLVLFPENGAALPVPGGSA [r9_548_TrMRF]”, the “folding stability dG unfold” value in data set [1] worked out at 0.71 ± 0.14 kcal/mol; in data set [2], 1.26 ± 0.074 kcal/mol; in data set [3], 1.1 ± 0.099 kcal/mol.
For “SLTPEQVEKIAKTIADVFRKLGYELKVKTKVFEVNNVPVAVVEFELIDKDGKPRRFRFVIHPDGTIEIFPSA [r9_1027_TrMRF]” the same measures were 4.15 ± 0.07 kcal/mol, 6.18 ± 0.092 kcal/mol and over 6 kcal/mol.
For “SMATVLSVSENPENPDTLSFEVELPDSPMSVTVPKDPKTGKYTMTVETPEATTTRDFTSLEDALAYIERASA [r9_366_JUSTAS]”, in that order: 0.787 ± 0.021 kcal/mol, 0.758 ± 0.08 kcal/mol and 0.795 ± 0.034 kcal/mol.
For “SMDFKENQSFYITEITDDEVTFIFNNKPYKFPKEFINSKDTIITIYNGKIKEIKKPKPLKLHPEEIKKLSSA [r9_842_TrMRF]”, in that order: 0.519 ± 0.17 kcal/mol, 1.43 ± 0.12 kcal/mol and 1.04 ± 0.36 kcal/mol.
On to “SMDIKVTKLPDGSYRITASVPPDTKPITIPVPKTGKPVVITTEPGKLTVTTDDEEVVKEVAEAIKKGELLSA [r9_515_JUSTAS]”, for which the “folding stability dG unfold” value in data set [1] was found to be 0.951 ± 0.066 kcal/mol; in data set [2], 0.929 ± 0.087 kcal/mol; in data set [3] it was 1.02 ± 0.15 kcal/mol.
For “SMEEEEEEPEPAPVVVITVEPGETVEQVRAAAREAAEKGMRIVITGLSEEEAKAIAEELGLDVEIEVVEPSA [r9_1207_TrROS_Hall]” the same measures were 3.01 ± 0.33 kcal/mol, 1.47 ± 0.16 kcal/mol and 2.69 ± 0.78 kcal/mol.
As for “SMEEIAKEIAEKAGVNWENVEFKVEEKEDPETGEKYLIAHVVIKLPNEKYIAVIDLRDKKILEIWKLEDISA [r9_1219_TrMRF]”, the “folding stability dG unfold” value in data set [1] turned out to be 2.91 ± 0.11 kcal/mol; in data set [2], 3.73 ± 0.063 kcal/mol; in data set [3] it was 3.61 ± 0.11 kcal/mol.
For “SMEIDPGPGVIRLRFEAPLVDPEHPRLLTLRLEPVIEVSPDGTLRVREVRLVGFSPDGELLFERPFTLDLSA [r9_383_TrMRF]” the same measures were 1.865 ± 0.017 kcal/mol, 2.28 ± 0.06 kcal/mol and 2.16 ± 0.066 kcal/mol.
For “SMEISFTDPAEAEALLAEVKAKLKAELPPNTVVPITVRDAAGNPTTHPITITPEPPEVVYFTETGGTVLLSA [r9_596_JUSTAS]”, in that order: 1.94 ± 0.17 kcal/mol, 1.57 ± 0.051 kcal/mol and 1.76 ± 0.28 kcal/mol.
For “SMEIVFKGKNYYVPVKIDLDNPKITIETYPDKRNKVFKPLSKETAEKIAKAVEIEVAEKIAKAIAEGKPPSA [r9_368_TrMRF]” the same measures were 0.0537 ± 0.39 kcal/mol, -0.5 ± 0.66 kcal/mol and -0.246 ± 0.54 kcal/mol.
In the case of “SMEKVKAKPAGEVTFVFDNEDPSLTPEQQVELVEKELEKLPELKIYEVEAEVDLETGKVTIKVKLLVEEVSA [r9_1001_TrMRF]”, the “folding stability dG unfold” value in data set [1] is -0.41 ± 0.28 kcal/mol; in data set [2], 1.26 ± 0.11 kcal/mol; in data set [3] it was 0.814 ± 0.22 kcal/mol.
For “SMEMTPEERLLALLREARKKHPGKKIVLSVEEIEELLGVDLSAEEIAKLLKEELGIDEVEIVEEEEPEEESA [r9_738_TrROS_Hall]”, the figures for the “folding stability dG unfold” value in data set [1], in data set [2] and in data set [3] were 2.11 ± 0.056 kcal/mol, 3.375 ± 0.031 kcal/mol and 3.01 ± 0.069 kcal/mol, respectively.
Turning to “SMEPGELRLRAKVPLRIVNPDGEEIADIEIEVRSIEELEEAIAEAARELAERLGRPDAPVVIDDIEVEDESA [r9_376_TrMRF]”, the results for the “folding stability dG unfold” value in data set [1], in data set [2] and in data set [3] were 0.239 ± 0.19 kcal/mol, 0.643 ± 0.14 kcal/mol and 0.482 ± 0.23 kcal/mol, respectively.
For “SMGMTPEEYILELVREALAADPDAAVTIDHDDIVRNTPNPISKEEIEKLAKEKTGVEDLTVTETPPDVPPSA [r9_738_JUSTAS]”, in that order: 0.18 ± 0.023 kcal/mol, 0.252 ± 0.054 kcal/mol and 0.265 ± 0.061 kcal/mol.
Regarding “SMIKVGFNVTGLPEEAEAKAEELARELAEETGARVAGVELLEAVPHPDGGPETFNVLVTLEVPNPEAIEKSA [r9_302_TrMRF]”, the “folding stability dG unfold” value stood at 0.542 ± 0.045 kcal/mol in data set [1], 2.21 ± 0.051 kcal/mol in data set [2] and 1.72 ± 0.093 kcal/mol in data set [3].
For the sequence “SMILDVPGEQLDEALAEIRAAVAAGAPPVTIRMKLSPEDLKKAKAAFEALGMTVTPLPEPGVWEFTVELRSA [r9_600_JUSTAS]”, the figures for the “folding stability dG unfold” value in data set [1], in data set [2] and in data set [3] were 3.08 ± 0.043 kcal/mol, 3.366 ± 0.017 kcal/mol and 3.27 ± 0.065 kcal/mol, respectively.
For the sequence “SMITIPYNIQTDPSQAEKLAEEIAKEVEEKYGLKVVGVELVEWVPAPDGSESSVKVEIKIEAPDPKNILLSA [r9_302_JUSTAS]”, the entries for the “folding stability dG unfold” value in data set [1], in data set [2] and in data set [3] were 0.614 ± 0.031 kcal/mol, 0.713 ± 0.089 kcal/mol and 0.705 ± 0.096 kcal/mol, respectively.
For “SMITSTTTTDPNSNTTTTTYTYPDTTYTVTRTLNPDNTVTVTVTATTPPGPTTPLSTVNLSPTDTLTLPVSA [r9_1172_JUSTAS]” the same measures were 1.34 ± 0.031 kcal/mol, 1.26 ± 0.068 kcal/mol and 1.36 ± 0.054 kcal/mol.
